In patent US20160046707A1:
Substitutions are numbered along the chain they refer to. Values belong to the binder of their own block, whether it stands above or below them.

Assays:
[1] = molecular target: recombinant human CCL20 (R&D Systems, #360-MP-025/CF) (human) (UniProt P78556); experiment: cell-based or functional assay
[2] = molecular target: recombinant human CCL20 (R&D Systems, #360-MP-025/CF) (human) (UniProt P78556); experiment: SPR (Biacore), antibody captured by anti-human Fc, human CCL20 injected (monovalent format), 1:1 Langmuir, average of two experiments
[3] = molecular target: recombinant human CCL20 (R&D Systems, #360-MP-025/CF) (human) (UniProt P78556); experiment: SPR (Biacore): antibody captured on anti-human Fc, 100 nM chemokine injected; ratio = chemokine binding level over antibody capture level

Sequence of recombinant human CCL20 (R&D Systems, #360-MP-025/CF) (human) (P78556 other isoform, or with tags, fused parts or gaps limits assumed): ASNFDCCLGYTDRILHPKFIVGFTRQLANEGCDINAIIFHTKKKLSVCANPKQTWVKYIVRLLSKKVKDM

- IC50, chemotaxis assay, Assay-1 [1]: 0.65 nM
- IC50, chemotaxis assay, Assay-2 [1]: 1.09 nM
- IC50, chemotaxis assay, Assay-3 [1]: 1.3 nM
- IC50, chemotaxis assay, Average [1]: 1.01 nM
- IC90, chemotaxis assay, Assay-1 [1]: 3.55 nM
- IC90, chemotaxis assay, Assay-2 [1]: 3.35 nM
- IC90, chemotaxis assay, Assay-3 [1]: 6.79 nM
- IC90, chemotaxis assay, Average [1]: 4.56 nM
- IC95, chemotaxis assay, Assay-1 [1]: 7.59 nM
- IC95, chemotaxis assay, Assay-2 [1]: 5.41 nM
- IC95, chemotaxis assay, Assay-3 [1]: 13.9 nM
- IC95, chemotaxis assay, Average [1]: 8.97 nM
- Kd [2]: 0.07 nM
- koff [2]: 0.00117 s⁻¹
- kon [2]: 1.66e+07 M⁻¹ s⁻¹
- ReqCk/ReqAb ratio [3]: 0.143
B1: humanized anti-human CCL20 antibody 36LK3/36HC2 (antibody, human IgG1, kappa, V domains shown)
VH: QVQLVQSGAEVKKPGASVKVSCKASGYTFTNYWMHWVRQAPGQGLEWMGVIDPSDSYTTYAQKFQGRVTMTVDTSTSTVYMELSSLRSEDTAVYYCARGNYGVDYAMDYWGQGTLVTVSS
VL: DIQMTQSPSSLSASVGDRVTITCGASENIYGALNWYQRKPGKAPKLLIYGATNLADGVPSRFSGSGSGRDYTLTISSLQPEDFATYYCQNVLITPYTFGQGTKLEIKR

- IC50, chemotaxis assay, Assay-1 [1]: 0.9 nM
- IC50, chemotaxis assay, Assay-2 [1]: 1.26 nM
- IC50, chemotaxis assay, Assay-3 [1]: 1.2 nM
- IC50, chemotaxis assay, Average [1]: 1.12 nM
- IC90, chemotaxis assay, Assay-1 [1]: 4.64 nM
- IC90, chemotaxis assay, Assay-2 [1]: 5.82 nM
- IC90, chemotaxis assay, Assay-3 [1]: 5.3 nM
- IC90, chemotaxis assay, Average [1]: 5.25 nM
- IC95, chemotaxis assay, Assay-1 [1]: 11.8 nM
- IC95, chemotaxis assay, Assay-2 [1]: > 66.8 nM
- IC95, chemotaxis assay, Assay-3 [1]: 10.3 nM
- Kd [2]: 0.044 nM
- koff [2]: 0.00061 s⁻¹
- kon [2]: 1.45e+07 M⁻¹ s⁻¹
- ReqCk/ReqAb ratio [3]: 0.156
B2: humanized anti-human CCL20 antibody 36LC3/36HC2 (antibody, human IgG1, kappa, V domains shown)
VH: B1 VH
VL: B1 VL with G24R, R38Q, D70Q, T72S, Q100G

- IC50, chemotaxis of human CCR6-transduced B300.19 cells toward 10 nM human CCL20 [1]: 1.7 nM
- IC90, chemotaxis of human CCR6-transduced B300.19 cells toward 10 nM human CCL20 [1]: 3.94 nM
- IC95, chemotaxis of human CCR6-transduced B300.19 cells toward 10 nM human CCL20 [1]: 7.68 nM
B3: mouse anti-human CCL20 monoclonal antibody 36F7C10 (antibody, V domains shown)
VH: QVQLQQPGAELVKPGASVKMSCKASGYTFTNYWMHWVKQRPGQGLEWIGVIDPSDSYTTYNQKFKGKATLTVDTSSSTAYMQLSSLTSEDSAVYYCTRGNYGVDYAMDYWGQGTSVTVSS
VL: DIQMTQSPASLSASVGETVTITCGASENIYGALNWYQRKQGKSPQLLIYGATNLADGMSSRFSGSGSGRQYSLKISSLHPDDVATYYCQNVLITPYTFGGGTKLEIK

- IC50, chemotaxis of human CCR6-transduced B300.19 cells toward 10 nM human CCL20 [1]: 1.44 nM
- IC90, chemotaxis of human CCR6-transduced B300.19 cells toward 10 nM human CCL20 [1]: 3.51 nM
- IC95, chemotaxis of human CCR6-transduced B300.19 cells toward 10 nM human CCL20 [1]: 5.48 nM
- ReqCk/ReqAb ratio [3]: 0.153
B4: chimeric 36F7C10 antibody (36F7C10-hFc) (antibody, V domains shown)
VH: B3 VH
VL: B3 VL
